To fix the notation:
B1: VAP-A (natural protein, human, UniProt Q9P0L0 8-249, looked up)
chain: MAKHEQILVLDPPTDLKFKGPFTDVVTTNLKLRNPSDRKVCFKVKTTAPRRYCVRPNSGIIDPGSTVTVSVMLQPFDYDPNEKSKHKFMVQTIFAPPNTSDMEAVWKEAKPDELMDSKLRCVFEMPNENDKLNDMEPSKAVPLNASKQDGPMPKPHSVSLNDTETRKLMEECKRLQGEMMKLSEENRHLRDEGLRLRKVAHSDKPGSTSTASFRDNVTSPLPSLLVVIAAIFIGFFLGKFIL
B2: N-PH-FFAT construct of OSBP (domain or fragment, human, UniProt P22059 1-408, looked up)
chain: MAATELRGVVGPGPAAIAALGGGGAGPPVVGGGGGRGDAGPGSGAASGTVVAAAAGGPGPGAGGVAAAGPAPAPPTGGSGGSGAGGSGSAREGWLFKWTNYIKGYQRRWFVLSNGLLSYYRSKAEMRHTCRGTINLATANITVEDSCNFIISNGGAQTYHLKASSEVERQRWVTALELAKAKAVKMLAESDESGDEESVSQTDKTELQNTLRTLSSKVEDLSTCNDLIAKHGTALQRSLSELESLKLPAESNEKIKQVNERATLFRITSNAMINACRDFLMLAQTHSKKWQKSLQYERDQRIRLEETLEQLAKQHNHLERAFRGATVLPANTPGNVGSGKDQCCSGKGDMSDEDDENEFFDAPEIITMPENLGHKRTGSNISGASSDISLDEQYKHQLEETKKEKRTR

Data set [1] addresses OSBP Central Core (CC), wild type (human) (UniProt P22059). Description: SEC. Background: SEC sorts molecules by how far they enter the pores of the column.
Data set [2] deals with OSBP CC[V199C] construct (V199C/C224A/C276A), labelled with AF-488 or AF-568 (human) (UniProt P22059). Description: FRET or BRET. On the technique in general: BRET reads energy transfer from a luciferase to a nearby fluorophore.
Data set [3] deals with the molecule itself. Description: cryo-EM structure.
For data set [4], the target named is B2. Description: membrane tethering in reconstituted contact sites, seen by cryo-EM and cryo-ET.

“OSBP Central Core (CC), wild type (from UniProt P22059 199-324) (domain or fragment)” displayed a stoichiometry N in data set [1] of 2.
Consider “OSBP CC[V199C] construct (V199C/C224A/C276A), labelled with AF-488 or AF-568 (from UniProt P22059 199-324) (domain or fragment)”, for which the half-time of monomer exchange in data set [2] was found to be 100 min.
In the case of B1, in data set [3], the “stoichiometry N” value amounted to 2. The binding result in data set [4] is recorded as “binds”.
With B2, the “stoichiometry N” value in data set [3] is 2.

In general, stoichiometry N refers to the number of molecules, sites or subunits per partner or assembly.

The values above are taken from paper doi:10.1101/2020.10.13.337493 (bioRxiv, 2020).
